Source: the Human Domainome abundance scans (Beltran et al. 2025)
± gives the uncertainty stated by the source.

B1: Ventral anterior homeobox 1, residues 102 to 157; numbered along this chain, Q5SQQ9 (parent)
chain: RTRTSFTAEQLYRLEMEFQRCQYVVGRERTELARQLNLSETQVKVWFQNRRTKQKK

Variants of: B1
Assay: abundance fitness (aPCA) (normalised: wild type 0, dead -1); higher = more abundant; growth selection in yeast, the domain comes from the species named
Details: Homo sapiens
In the case of R27K, the abundance fitness is reported as -0.045 ± 0.2. In the case of R27I, the abundance fitness is reported as 0.19 ± 0.43. Variant R27E has an abundance fitness of 0.167 ± 0.15. R27V showed an abundance fitness of -0.01 ± 0.12. In the case of R27P, the abundance fitness is reported as 0.008 ± 0.18. Work on R27C yielded an abundance fitness of -0.026 ± 0.2. Work on R27S yielded an abundance fitness of 0.18 ± 0.15. R27G gave an abundance fitness of 0.003 ± 0.097. For R27Q, the abundance fitness was 0.009 ± 0.15. R27Y showed an abundance fitness of -0.108 ± 0.21. With R27T the abundance fitness was 0.013 ± 0.15. With R27H the abundance fitness was -0.245 ± 0.26. Work on R27A yielded an abundance fitness of 0.07 ± 0.14. Work on R27F yielded an abundance fitness of -0.141 ± 0.37. Variant R27N has an abundance fitness of 0.156 ± 0.29. With R27L the abundance fitness was -0.049 ± 0.13. E17H showed an abundance fitness of -0.044 ± 0.23. For E17T, the abundance fitness was -0.297 ± 0.23. Work on E17D yielded an abundance fitness of -0.65 ± 0.29. With E17V the abundance fitness was -0.296 ± 0.15. With E17L the abundance fitness was -0.558 ± 0.2. For E17M, the abundance fitness was -0.281 ± 0.23. Variant E17F has an abundance fitness of -0.031 ± 0.36. E17R showed an abundance fitness of -0.421 ± 0.13. Work on E17W yielded an abundance fitness of -0.359 ± 0.2. With E17G the abundance fitness was -0.679 ± 0.14. E17I gave an abundance fitness of -0.544 ± 0.37. With E17K the abundance fitness was -0.604 ± 0.3. Variant E17Q has an abundance fitness of -0.296 ± 0.27. In the case of E17S, the abundance fitness is reported as -0.294 ± 0.16. In the case of E17C, the abundance fitness is reported as -0.209 ± 0.22. Variant C21A has an abundance fitness of -0.166 ± 0.31. In the case of C21Q, the abundance fitness is reported as -0.37 ± 0.27. Variant C21G has an abundance fitness of -0.16 ± 0.2. In the case of C21K, the abundance fitness is reported as -0.169 ± 0.31. C21P showed an abundance fitness of -0.231 ± 0.41. With C21S the abundance fitness was -0.013 ± 0.17. For C21T, the abundance fitness was -0.019 ± 0.35. In the case of C21M, the abundance fitness is reported as -0.434 ± 0.27. Work on C21F yielded an abundance fitness of -0.21 ± 0.41. In the case of C21R, the abundance fitness is reported as -0.229 ± 0.17. In the case of C21D, the abundance fitness is reported as 0.16 ± 0.47. Work on C21L yielded an abundance fitness of -0.377 ± 0.17. C21E gave an abundance fitness of -0.101 ± 0.2. C21H gave an abundance fitness of -0.215 ± 0.35. In the case of C21V, the abundance fitness is reported as -0.054 ± 0.17. C21Y showed an abundance fitness of -0.404 ± 0.28. Variant C21W has an abundance fitness of -0.635 ± 0.33. Variant Y12V has an abundance fitness of -0.085 ± 0.096. Variant Y12L has an abundance fitness of -0.086 ± 0.12. Work on Y12W yielded an abundance fitness of 0.001 ± 0.15. Variant Y12C has an abundance fitness of -0.176 ± 0.2. With Y12S the abundance fitness was 0.069 ± 0.11. Variant Y12F has an abundance fitness of -0.13 ± 0.21. In the case of Y12T, the abundance fitness is reported as 0.018 ± 0.14. Y12P gave an abundance fitness of -0.967 ± 0.21. Variant Y12I has an abundance fitness of -0.188 ± 0.3. Y12M showed an abundance fitness of 0.102 ± 0.15. For Y12A, the abundance fitness was 0.044 ± 0.099. L14S showed an abundance fitness of -0.906 ± 0.2. L14C gave an abundance fitness of -0.518 ± 0.23. With L14F the abundance fitness was -0.789 ± 0.38. In the case of L14W, the abundance fitness is reported as -0.747 ± 0.26. For L14A, the abundance fitness was -0.708 ± 0.21. L14V showed an abundance fitness of -0.619 ± 0.19. L14T showed an abundance fitness of -0.843 ± 0.38. With L14I the abundance fitness was -0.54 ± 0.49. With L14M the abundance fitness was -0.368 ± 0.24. E15C showed an abundance fitness of -0.803 ± 0.32. For E15H, the abundance fitness was -1.08 ± 0.44. In the case of E15L, the abundance fitness is reported as -0.44 ± 0.22. E15G gave an abundance fitness of -0.823 ± 0.14. Variant E15N has an abundance fitness of -0.564 ± 0.24. Variant E15M has an abundance fitness of -0.982 ± 0.27. In the case of E15W, the abundance fitness is reported as -0.71 ± 0.25. Work on E15A yielded an abundance fitness of -0.876 ± 0.17. For E15F, the abundance fitness was -0.533 ± 0.33. E15P gave an abundance fitness of -1.07 ± 0.36. E15D showed an abundance fitness of -0.379 ± 0.22. Variant E15Q has an abundance fitness of -1.01 ± 0.27. Variant E15V has an abundance fitness of -0.847 ± 0.17. With E15R the abundance fitness was -0.787 ± 0.13. E15S showed an abundance fitness of -0.766 ± 0.2. For R20F, the abundance fitness was -0.47 ± 0.26. R20D showed an abundance fitness of 0.149 ± 0.31. With R20K the abundance fitness was -0.428 ± 0.24. R20Q showed an abundance fitness of -0.226 ± 0.2. With R20Y the abundance fitness was -0.436 ± 0.29. Variant R20M has an abundance fitness of -0.001 ± 0.17. For R20C, the abundance fitness was -0.303 ± 0.18. R20S showed an abundance fitness of -0.04 ± 0.14. R20V showed an abundance fitness of -0.162 ± 0.12. In the case of R20I, the abundance fitness is reported as -0.386 ± 0.28. R20N showed an abundance fitness of 0.251 ± 0.29. R20G showed an abundance fitness of -0.409 ± 0.12. With R20W the abundance fitness was -0.632 ± 0.28. R20E showed an abundance fitness of -0.261 ± 0.25. With R20L the abundance fitness was -0.223 ± 0.14. Variant R20T has an abundance fitness of -0.305 ± 0.24. Q19S showed an abundance fitness of -0.063 ± 0.13. Work on Q19C yielded an abundance fitness of -0.225 ± 0.16. Q19A gave an abundance fitness of -0.002 ± 0.12. For Q19F, the abundance fitness was -0.33 ± 0.24. With Q19G the abundance fitness was -0.133 ± 0.11. Q19R gave an abundance fitness of -0.316 ± 0.11. In the case of Q19P, the abundance fitness is reported as -0.732 ± 0.24. With Q19W the abundance fitness was -0.213 ± 0.15. Work on Q19H yielded an abundance fitness of -0.274 ± 0.24. Work on Q19N yielded an abundance fitness of -0.115 ± 0.22. Q19T showed an abundance fitness of -0.046 ± 0.14. Q19Y showed an abundance fitness of -0.603 ± 0.3. Variant Q19I has an abundance fitness of -0.165 ± 0.21. Q19D showed an abundance fitness of -0.161 ± 0.19. Q19E showed an abundance fitness of -0.039 ± 0.14. Q19V gave an abundance fitness of -0.153 ± 0.11. For Q19M, the abundance fitness was -0.133 ± 0.17. With Q19L the abundance fitness was -0.044 ± 0.12. V24F showed an abundance fitness of -0.408 ± 0.32. V24L showed an abundance fitness of 0.059 ± 0.14. In the case of V24H, the abundance fitness is reported as -0.307 ± 0.24. Variant V24E has an abundance fitness of -0.367 ± 0.22. V24C showed an abundance fitness of 0.12 ± 0.21. In the case of V24A, the abundance fitness is reported as -0.12 ± 0.14. For V24S, the abundance fitness was -0.09 ± 0.14. With V24T the abundance fitness was -0.074 ± 0.19. Variant V24G has an abundance fitness of -0.436 ± 0.14. With V24I the abundance fitness was -0.086 ± 0.15. Work on V24N yielded an abundance fitness of -0.25 ± 0.32. V24M gave an abundance fitness of -0.16 ± 0.18. For V24R, the abundance fitness was -0.243 ± 0.13. With V24Y the abundance fitness was -0.421 ± 0.25. Work on V24D yielded an abundance fitness of -0.347 ± 0.31. V24W gave an abundance fitness of -0.416 ± 0.24. In the case of V24P, the abundance fitness is reported as -0.167 ± 0.21. V24Q showed an abundance fitness of -0.559 ± 0.24. In the case of E28M, the abundance fitness is reported as -0.446 ± 0.2. Variant E28D has an abundance fitness of -0.077 ± 0.24. Variant E28L has an abundance fitness of -0.369 ± 0.12. For E28K, the abundance fitness was -0.78 ± 0.28. Work on E28A yielded an abundance fitness of -0.318 ± 0.12. Work on E28H yielded an abundance fitness of -0.318 ± 0.2. E28F showed an abundance fitness of -0.513 ± 0.26. Variant E28C has an abundance fitness of -0.412 ± 0.18. For E28G, the abundance fitness was -0.39 ± 0.1. Variant E28I has an abundance fitness of -0.657 ± 0.29. Variant F6K has an abundance fitness of -0.42 ± 0.33. Variant F6L has an abundance fitness of -0.029 ± 0.1. F6M gave an abundance fitness of 0.049 ± 0.22. Variant F6V has an abundance fitness of -0.105 ± 0.14. With F6N the abundance fitness was -0.43 ± 0.33. Variant F6W has an abundance fitness of -0.052 ± 0.12. F6Q showed an abundance fitness of -0.347 ± 0.17. For F6R, the abundance fitness was -0.71 ± 0.12. Variant F6T has an abundance fitness of -0.556 ± 0.16. F6S showed an abundance fitness of -0.729 ± 0.14. In the case of F6P, the abundance fitness is reported as -0.337 ± 0.2. F18W gave an abundance fitness of -0.181 ± 0.14. Variant F18M has an abundance fitness of -0.674 ± 0.21. F18Y gave an abundance fitness of -0.124 ± 0.23. Variant F18I has an abundance fitness of -0.689 ± 0.34. F18V showed an abundance fitness of -0.887 ± 0.18. F18L gave an abundance fitness of -0.927 ± 0.17. For F18C, the abundance fitness was -0.741 ± 0.27. With L11T the abundance fitness was -0.149 ± 0.16. For L11D, the abundance fitness was 0.022 ± 0.12. Work on L11R yielded an abundance fitness of -0.61 ± 0.12. With L11A the abundance fitness was -0.075 ± 0.096.
